Results reported in patent publication US20120165265A1 (published 2012).

Target: T1, Flag-myc-CAD (Homo sapiens (Human), UniProt Q13586 342-448)
T1 construct: also called Flag-tagged CAD; not shown: Flag and myc tags from the custom vector pDEST-pGWI-Flag-Myc-x
Experiment: co-immunoprecipitation from HEK 293T cells
Experimental: Immunoprecipitation and Immunoblot Analysis. […] Lysates were spun at 12,000 rpm for 10 min, and the supernatant was incubated with anti-Flag M2 agarose beads (Sigma), or anti-myc or -HA antibody followed by IgG agarose beads (Pierce). Lysates and immunoprecipitates were subjected to SDS-PAGE, probed with HRP-conjugated secondary antibody and detected by enhanced chemiluminescence (Pierce).
STIM1-CAD BINDS TO THE N- AND C-TERMINI OF ORAI1. To identify regions of Orai1 important for activation by CAD, we characterized the binding of CAD to Orai1 using two approaches. First we expressed fusions of NubG with the N-terminus, the II-III cytoplasmic loop and the C-terminus of Orai1 in yeast together with different CAD-Cub-LV constructs. […] Based on the level of b-gal activity, CAD appears to interact with the Orai1 C-terminus with a higher affinity than with the N-terminus.

T1 sequence (Q13586 342-448): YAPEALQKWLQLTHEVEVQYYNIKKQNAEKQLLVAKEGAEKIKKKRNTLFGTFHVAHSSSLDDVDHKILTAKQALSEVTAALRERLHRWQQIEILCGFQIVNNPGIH

B1: Orai1 1-70, expressed in HEK 293T cells (other)
chain: MHPEPAPPPSRSSPELPPSGGSTTSGSRRSRRRSGDGEPPGAPPPPPSAVTYPDWIGQSYSEVMSLNEHS
notes: not shown: The detection tag of the HEK construct (probably N-terminal YFP)
binding result: no binding
